MFI ratio, binding result and Kd data for 16 molecules are collected here from patent US20240336681A1 (LUDWIG MAXIMILIANS UNIVERSIT T M NCHEN, published 2024).

Experiment [1] deals with T1, human CD47 on cells (human, UniProt Q08722 19-323).
T1 construct: also called CD47 on Molm-13, OVCAR-3, Suit-2 MSLN, HL-60 cells, red blood cells and CD47-transfected CHO cells
As to the kind of experiment: flow cytometry on CD47-positive Expi293 cells, 50 nM antibody; MFI of the antibody over MFI of the isotype control. As for the experimental part: (§1) Initially, binding of anti-hCD47 IgG4, anti-hCD47 IgG1 antibodies and Fab domains were measured on CD47-expressing cells by flow cytometry. Cells were stained with 50 nM of antibody followed by staining with a secondary fluorescently labelled anti-human IgG Fc or light-chain antibody, and analyzed by flow cytometry. Binding was measured by calculating the median fluorescence intensity (MFI) ratio, by dividing MFI of the antibody by the MFI of the isotype control.

In experiment [2] the target is T1, human CD47 on cells. As to the kind of experiment: flow cytometry on CD47-positive Expi293 cells; MFI of the antibody over MFI of the isotype control. As for the experimental part:
as §1

Experiment [3] has as its target recombinant C-terminally His-tagged human CD47 (extracellular domain) (human) (UniProt Q08722). The experiment is described as follows: SPR, Biacore X100; construct captured by anti-human Fc on CM5 chip, human CD47 extracellular domain as analyte, 1:1 fit.

T1 sequence (Q08722 19-323): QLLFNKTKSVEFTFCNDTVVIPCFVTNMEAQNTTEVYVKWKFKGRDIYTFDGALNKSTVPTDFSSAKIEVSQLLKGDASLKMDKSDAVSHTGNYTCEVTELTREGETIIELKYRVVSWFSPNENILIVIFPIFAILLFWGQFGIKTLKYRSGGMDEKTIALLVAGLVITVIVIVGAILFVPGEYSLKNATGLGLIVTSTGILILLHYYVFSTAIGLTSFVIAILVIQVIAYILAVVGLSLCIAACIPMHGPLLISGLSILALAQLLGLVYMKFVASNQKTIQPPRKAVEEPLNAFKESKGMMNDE
Sequence of recombinant C-terminally His-tagged human CD47 (extracellular domain) (human) (Q08722 19-141): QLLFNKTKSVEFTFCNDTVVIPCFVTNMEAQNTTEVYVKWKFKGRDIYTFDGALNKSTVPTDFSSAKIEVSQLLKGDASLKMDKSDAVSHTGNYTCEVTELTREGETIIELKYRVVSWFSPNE

B1: 2D6-009 (antibody, IgG4, V domains shown)
VH: QVQLVESGGGLVQPGGSLRLSCAASGYTFTSYDINWVRQAPGKGLEWVGWIYPRDGSPKYNEKFKGRFTISADTSKNTAYLQMNSLRAEDTAVYYCARSVYYGTQFAYWGQGTLVTVSS
VL: DIVLTQSPSSLSASVGDRVTMSCKSSQSLLNSRTRKNYLAWYQQKPGKAPKLLIYWASTRDSGVPSRFSGSGSGTDFTLTISSLQPEDIATYYCKQSFNLVTFGGGTKLEIK
Turning to B1, in the experiment with human CD47 on cells [1], the MFI ratio stood at 1.58.

B2: 2D6-010 (antibody, IgG4, V domains shown)
VH: QVQLVESGGGLVQPGGSLRLSCAASGYTFTSYDINWVRQAPGKGLEWVGWIYPRDGSPKYNEKFKGRFTISADTSKNTAYLQMNSLRAEDTAVYYCARSVYYGTQFAYWGQGTLVTVSS
VL: DIVMTQSPSSLAVSLGERVTMSCKSSQSLLNSRTRKNYLAWYQQKPGQPPKLLIYWASTRDSGVPDRFSGSGSGTDFTLTISSLQAEDVAVYYCKQSFNLVTFGGGTKLEIK
notes: also called VH3/VL2
Take B2: the MFI ratio with human CD47 on cells [1] came to 1.08. The binding result with human CD47 on cells [2] was “no binding (tested: 50 nM (not on the sheet))”.

B3: 2D6-008 (antibody, IgG4, V domains shown)
VH: QVELVQSGPEVKKPGSSVKVSCKASGYTFPSYDINWVRQRPGQGLEWMGWIYPRDGSPKYNEKFKGRVTITADTSTSTAYMELHSLRSEDTAVYYCARSVYYGTQFAYWGQGTLVTVSA
VL: DIVMTQSPSSLSASVGDRVTITCKSSQSLLNSRTRKNYLAWYQQKPGKAPKLLIYWASTRDSGVPDRFSGSGSGTDFTLTISSLQPEDFATYYCKQSFNLVTFGQGTKVEIK
notes: also called VH2/VL4
As for B3, in the experiment with human CD47 on cells [1], the MFI ratio is 3.29.

B4: 2D6-001 (antibody, IgG4, V domains shown)
VH: QVELVQSGAEVKKPGSSVKVSCKASGGTFPSYDINWVRQAPGQGLEWMGWIYPRDGSPKYNEKFKGRVTITADESTSTAYMELSSLRSEDTAVYYCARSVYYGTQFAYWGQGTLVTVSS
VL: DIVLTQSPSSLSASVGDRVTMSCKSSQSLLNSRTRKNYLAWYQQKPGKAPKLLIYWASTRDSGVPSRFSGSGSGTDFTLTISSLQPEDIATYYCKQSFNLVTFGGGTKLEIK
notes: also called VH1/VL1
In the case of B4, in the experiment with human CD47 on cells [1], the MFI ratio was found to be 1.15. Moreover, the binding result with human CD47 on cells [2] was “no binding (tested: 50 nM (not on the sheet))”.

B5: 2D6-036 (bispecific antibody, part only; not given: linkers and anti-TAA IgG1 chains, V domains shown, not shown: another chain or arm of the molecule; large carriers; small tags and cut ends)
VH: QVELVQSGPEVKKPGSSVKVSCKASGYTFPSYDINWVRQRPGQGLEWMGWIIPRDGSPKYNEKFKGRVTITADTSTSTAYMELHSLRSEDTAVYYCARSVYYGTQFAYWGQGTLVTVSA
VL: DIVLTQSPSSLAVSLGERVTMSCKSSQSLLNSRTRKNYLAWYQQKPGQPPKLLIYWASTRDSGVPDRFSGSGSGTDFTLTISSLQAEDVAVYYCKQSFNLVTFGGGTKLEIK
Regarding B5, in experiment [3], the Kd amounted to 1110 nM.

B6: 2D6-007 (antibody, IgG4, V domains shown)
VH: QVELVQSGPEVKKPGSSVKVSCKASGYTFPSYDINWVRQRPGQGLEWMGWIYPRDGSPKYNEKFKGRVTITADTSTSTAYMELHSLRSEDTAVYYCARSVYYGTQFAYWGQGTLVTVSA
VL: DIQMTQSPSSLSASVGDRVTITCKSSQSLLNSRTRKNYLAWYQQKPGKAPKLLIYWASTRDSGVPSRFSGSGSGTDFTLTISSLQPEDFATYYCKQSFNLVTFGQGTKVEIK
notes: also called VH2/VL3
Regarding B6, the MFI ratio in the experiment with human CD47 on cells [1] is 3.92.

B7: 2D6-004 (antibody, IgG4, V domains shown)
VH: QVELVQSGAEVKKPGSSVKVSCKASGGTFPSYDINWVRQAPGQGLEWMGWIYPRDGSPKYNEKFKGRVTITADESTSTAYMELSSLRSEDTAVYYCARSVYYGTQFAYWGQGTLVTVSS
VL: DIVMTQSPSSLSASVGDRVTITCKSSQSLLNSRTRKNYLAWYQQKPGKAPKLLIYWASTRDSGVPDRFSGSGSGTDFTLTISSLQPEDFATYYCKQSFNLVTFGQGTKVEIK
notes: also called VH1/VL4
Take B7: the MFI ratio with human CD47 on cells [1] was found to be 1.07. Moreover, the binding result with human CD47 on cells [2] was “no binding (tested: 50 nM (not on the sheet))”.

B8: 2D6-014 (antibody, IgG4, V domains shown)
VH: QVQLVESGGGLVQPGGSLRLSCAASGYTFPSYDINWVRQAPGKGLEWVGWIYPRDGSPKYNEKFKGRFTISADTSKNTAYLQMNSLRAEDTAVYYCARSVYYGTQFAYWGQGTLVTVSS
VL: DIVMTQSPSSLAVSLGERVTMSCKSSQSLLNSRTRKNYLAWYQQKPGQPPKLLIYWASTRDSGVPDRFSGSGSGTDFTLTISSLQAEDVAVYYCKQSFNLVTFGGGTKLEIK
notes: also called VH4/VL2
For B8, in the experiment with human CD47 on cells [1], the MFI ratio came to 1.03. In addition, the binding result with human CD47 on cells [2] is listed as “no binding (tested: 50 nM (not on the sheet))”.

B9: 2D6-003 (antibody, IgG4, V domains shown)
VH: QVELVQSGAEVKKPGSSVKVSCKASGGTFPSYDINWVRQAPGQGLEWMGWIYPRDGSPKYNEKFKGRVTITADESTSTAYMELSSLRSEDTAVYYCARSVYYGTQFAYWGQGTLVTVSS
VL: DIQMTQSPSSLSASVGDRVTITCKSSQSLLNSRTRKNYLAWYQQKPGKAPKLLIYWASTRDSGVPSRFSGSGSGTDFTLTISSLQPEDFATYYCKQSFNLVTFGQGTKVEIK
notes: also called VH1/VL3
Consider B9, for which the MFI ratio with human CD47 on cells [1] came to 1.06. The binding result with human CD47 on cells [2] is on record as “no binding (tested: 50 nM (not on the sheet))”.

B10: 2D6-037 (bispecific antibody, part only; not given: linkers and anti-TAA IgG1 chains, V domains shown, not shown: another chain or arm of the molecule; large carriers; small tags and cut ends)
VH: QVELVQSGPEVKKPGSSVKVSCKASGYTFPSYDINWVRQRPGQGLEWMGWIYPRFGSPKYNEKFKGRVTITADTSTSTAYMELHSLRSEDTAVYYCARSVYYGTQFAYWGQGTLVTVSA
VL: DIVLTQSPSSLAVSLGERVTMSCKSSQSLLNSRTRKNYLAWYQQKPGQPPKLLIYWASTRDSGVPDRFSGSGSGTDFTLTISSLQAEDVAVYYCKQSFNLVTFGGGTKLEIK
With B10, the Kd in experiment [3] was 176 nM.

B11: 2D6-013 (antibody, IgG4, V domains shown)
VH: QVQLVESGGGLVQPGGSLRLSCAASGYTFPSYDINWVRQAPGKGLEWVGWIYPRDGSPKYNEKFKGRFTISADTSKNTAYLQMNSLRAEDTAVYYCARSVYYGTQFAYWGQGTLVTVSS
VL: DIVLTQSPSSLSASVGDRVTMSCKSSQSLLNSRTRKNYLAWYQQKPGKAPKLLIYWASTRDSGVPSRFSGSGSGTDFTLTISSLQPEDIATYYCKQSFNLVTFGGGTKLEIK
notes: also called VH4/VL1
B11: the MFI ratio with human CD47 on cells [1] came out at 1.05. In addition, in the experiment with human CD47 on cells [2], the binding result is “no binding (tested: 50 nM (not on the sheet))”.

B12: 2D6-012 (antibody, IgG4, V domains shown)
VH: QVQLVESGGGLVQPGGSLRLSCAASGYTFTSYDINWVRQAPGKGLEWVGWIYPRDGSPKYNEKFKGRFTISADTSKNTAYLQMNSLRAEDTAVYYCARSVYYGTQFAYWGQGTLVTVSS
VL: DIVMTQSPSSLSASVGDRVTITCKSSQSLLNSRTRKNYLAWYQQKPGKAPKLLIYWASTRDSGVPDRFSGSGSGTDFTLTISSLQPEDFATYYCKQSFNLVTFGQGTKVEIK
notes: also called VH3/VL4
For B12, in the experiment with human CD47 on cells [1], the MFI ratio was determined as 4.1.

B13: 2D6-011 (antibody, IgG4, V domains shown)
VH: QVQLVESGGGLVQPGGSLRLSCAASGYTFTSYDINWVRQAPGKGLEWVGWIYPRDGSPKYNEKFKGRFTISADTSKNTAYLQMNSLRAEDTAVYYCARSVYYGTQFAYWGQGTLVTVSS
VL: DIQMTQSPSSLSASVGDRVTITCKSSQSLLNSRTRKNYLAWYQQKPGKAPKLLIYWASTRDSGVPSRFSGSGSGTDFTLTISSLQPEDFATYYCKQSFNLVTFGQGTKVEIK
notes: also called VH3/VL3
For B13, the MFI ratio with human CD47 on cells [1] turned out to be 4.51.

B14: 2D6-046 (bispecific antibody, part only; not given: linkers and anti-TAA IgG1 chains, V domains shown, not shown: another chain or arm of the molecule; large carriers; small tags and cut ends)
VH: QVELVQSGPEVKKPGSSVKVSCKASGYTFPSYDINWVRQRPGQGLEWMGWIYPRDGSPKYNEKFKGRVTITADTSTSTAYMELHSLRSEDTAVYYCARSVYYGTQFAYWGQGTLVTVSA
VL: DIVLTQSPSSLAVSLGERVTMSCKSSQSLLNSRTRKNYLAWYQQKPGQPPKLLIYWASTRDSGVPDRFSGSGSGTDFTLTISSLQAEDVAVYYCQQSFNLVTFGGGTKLEIK
B14: in experiment [3], the Kd is 406 nM.

B15: 2D6-002 (antibody, IgG4, V domains shown)
VH: QVELVQSGAEVKKPGSSVKVSCKASGGTFPSYDINWVRQAPGQGLEWMGWIYPRDGSPKYNEKFKGRVTITADESTSTAYMELSSLRSEDTAVYYCARSVYYGTQFAYWGQGTLVTVSS
VL: DIVMTQSPSSLAVSLGERVTMSCKSSQSLLNSRTRKNYLAWYQQKPGQPPKLLIYWASTRDSGVPDRFSGSGSGTDFTLTISSLQAEDVAVYYCKQSFNLVTFGGGTKLEIK
notes: also called VH1/VL2
B15: the MFI ratio in the experiment with human CD47 on cells [1] stood at 1.06. The binding result with human CD47 on cells [2] is “no binding (tested: 50 nM (not on the sheet))”.

B16: 2D6-006 (antibody, IgG4, V domains shown)
VH: QVELVQSGPEVKKPGSSVKVSCKASGYTFPSYDINWVRQRPGQGLEWMGWIYPRDGSPKYNEKFKGRVTITADTSTSTAYMELHSLRSEDTAVYYCARSVYYGTQFAYWGQGTLVTVSA
VL: DIVMTQSPSSLAVSLGERVTMSCKSSQSLLNSRTRKNYLAWYQQKPGQPPKLLIYWASTRDSGVPDRFSGSGSGTDFTLTISSLQAEDVAVYYCKQSFNLVTFGGGTKLEIK
notes: also called VH2/VL2
On to B16, for which the MFI ratio with human CD47 on cells [1] is 3.12.
